Assay results: the supplement of paper PMC7125110
± gives the standard error. For some assays here: Fewer inactive variants are shown than the library holds.

B1: glmS ribozyme (parent)
chain: AUAAAAGCGCCAGAACUACAGAAAUGUAGUUGACGAGGAGGAGGUUUAUCGAAUUUUCGGCGGAUGCCUCCAAA

How the values were obtained:
Settings in all cases: with glucosamine-6-phosphate
[1] = variants of: B1; assay: self-cleavage kobs at 40 uM GlcN6P; higher = faster cleavage; RNA array
Outline: (§1)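 In situ transcription by E. coli RNA polymerase produced barcoded ribozyme variants on sequenced MiSeq chips, and a hybridised Cy3 probe tracked them at 37 °C. Glucosamine-6-phosphate was flowed in at 40 μM to 10 mM in HEPES/KCl/Mg(OAc)2 buffer. kcat and KM were taken from weighted Michaelis–Menten fits of kobs values from exponential decay fits.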

[2] = variants of: B1; assay: self-cleavage kobs at 10000 uM GlcN6P; higher = faster cleavage; RNA array
Outline: as §1

[3] = variants of: B1; assay: self-cleavage kobs at 640 uM GlcN6P; higher = faster cleavage; RNA array
Outline: as §1

[4] = variants of: B1; assay: kcat; higher = faster cleavage; RNA array
Outline: as §1

[5] = variants of: B1; assay: self-cleavage kobs at 2500 uM GlcN6P; higher = faster cleavage; RNA array
Outline: as §1

[6] = variants of: B1; assay: KM; higher = weaker cofactor use; RNA array
Outline: as §1

[7] = variants of: B1; assay: self-cleavage kobs at 160 uM GlcN6P; higher = faster cleavage; RNA array
Outline: as §1

Variant	self-cleavage kobs at 40 uM GlcN6P [1]	self-cleavage kobs at 10000 uM GlcN6P [2]	self-cleavage kobs at 640 uM GlcN6P [3]	kcat [4]	self-cleavage kobs at 2500 uM GlcN6P [5]	KM [6]	self-cleavage kobs at 160 uM GlcN6P [7]
A6G C50A U65G	< 1e-05 s⁻¹	–	–	–	–	–	–
A6C C34A C58A	< 1e-05 s⁻¹	< 1e-05 s⁻¹	–	–	–	–	–
A6C C61G	< 1e-05 s⁻¹	< 1e-05 s⁻¹	< 1e-05 s⁻¹	–	–	–	–
C68U C71G	–	–	2.44e-05 ± 1e-05 s⁻¹	1.73e-05 ± 3.6e-06 s⁻¹	1.93e-05 ± 8.3e-06 s⁻¹	–	–
G59A G60C	–	–	–	–	–	30.9 ± 14 µM	–
A6G C11U C16A A64G	< 1e-05 s⁻¹	< 1e-05 s⁻¹	< 1e-05 s⁻¹	–	–	–	< 1e-05 s⁻¹
A6G A12G G66U	< 1e-05 s⁻¹	–	–	–	–	–	–
A6U A12C U45A A52C	< 1e-05 s⁻¹	< 1e-05 s⁻¹	–	–	< 1e-05 s⁻¹	–	–
A6G C34A	< 1e-05 s⁻¹	< 1e-05 s⁻¹	< 1e-05 s⁻¹	–	< 1e-05 s⁻¹	–	< 1e-05 s⁻¹
A6C A14U G41U C70U	< 1e-05 s⁻¹	–	–	–	–	–	–
A6G G13C	< 1e-05 s⁻¹	< 1e-05 s⁻¹	< 1e-05 s⁻¹	–	< 1e-05 s⁻¹	–	< 1e-05 s⁻¹
A6C A15U A36C G43A U46G C50U A53U C61U	< 1e-05 s⁻¹	< 1e-05 s⁻¹	< 1e-05 s⁻¹	–	< 1e-05 s⁻¹	–	–
A6G A53C C58A C61A	< 1e-05 s⁻¹	< 1e-05 s⁻¹	–	–	–	–	–
U69A C70G	–	–	–	1.72e-05 ± 8e-06 s⁻¹	–	–	–
A6C A64U	< 1e-05 s⁻¹	< 1e-05 s⁻¹	< 1e-05 s⁻¹	–	–	–	< 1e-05 s⁻¹
A6G C10U A39G C58A	< 1e-05 s⁻¹	< 1e-05 s⁻¹	–	–	< 1e-05 s⁻¹	–	–
A6G A52G	< 1e-05 s⁻¹	–	–	–	–	–	< 1e-05 s⁻¹
U65A G66A C67G C71U	–	6.69e-05 ± 1.9e-05 s⁻¹	–	8.39e-05 ± 1.9e-05 s⁻¹	8.49e-05 ± 2.1e-05 s⁻¹	–	–
G37A G63A	–	–	–	–	–	278 ± 110 µM	–
A6C G29C A36U C61U	< 1e-05 s⁻¹	< 1e-05 s⁻¹	–	–	< 1e-05 s⁻¹	–	–
A72C	0.000372 ± 7.3e-05 s⁻¹	0.0121 ± 0.0021 s⁻¹	0.00257 ± 0.00043 s⁻¹	0.00605 ± 0.0029 s⁻¹	0.00362 ± 0.00077 s⁻¹	–	–

Variant	self-cleavage kobs at 40 uM GlcN6P [1]	self-cleavage kobs at 10000 uM GlcN6P [2]	self-cleavage kobs at 640 uM GlcN6P [3]	kcat [4]	self-cleavage kobs at 2500 uM GlcN6P [5]	KM [6]	self-cleavage kobs at 160 uM GlcN6P [7]
A6G A15U C16U A39G C70U	< 1e-05 s⁻¹	–	< 1e-05 s⁻¹	–	–	–	–
U65A C71G	–	0.000383 ± 8.9e-05 s⁻¹	0.000124 ± 1.6e-05 s⁻¹	0.000477 ± 0.00013 s⁻¹	0.000382 ± 9.3e-05 s⁻¹	1710 ± 720 µM	4.31e-05 ± 1.1e-05 s⁻¹
A6G A53C U56G	< 1e-05 s⁻¹	–	–	–	–	–	–
A42G U55C	0.000832 ± 0.00014 s⁻¹	0.0147 ± 0.0029 s⁻¹	0.0147 ± 0.0051 s⁻¹	–	0.0354 ± 0.016 s⁻¹	895 ± 430 µM	0.00147 ± 0.00063 s⁻¹
G13A C61G	–	–	–	–	–	127 ± 17 µM	–
A6C C8A A48U A52C	< 1e-05 s⁻¹	< 1e-05 s⁻¹	–	–	–	–	–
A6G A36G	< 1e-05 s⁻¹	< 1e-05 s⁻¹	< 1e-05 s⁻¹	–	< 1e-05 s⁻¹	–	–
A6G C50G	0.000151 ± 3.1e-05 s⁻¹	3.84e-05 ± 1.3e-05 s⁻¹	0.000503 ± 0.00012 s⁻¹	–	0.000106 ± 3.4e-05 s⁻¹	–	9.76e-05 ± 3.1e-05 s⁻¹
C70A C71U	–	–	5.75e-05 ± 1e-05 s⁻¹	9.41e-05 ± 4.3e-06 s⁻¹	8.22e-05 ± 1e-05 s⁻¹	384 ± 58 µM	2.83e-05 ± 1e-05 s⁻¹
C70A C71G	–	5.37e-05 ± 7.8e-06 s⁻¹	5.81e-05 ± 7.8e-06 s⁻¹	5.62e-05 ± 4.3e-06 s⁻¹	5.08e-05 ± 7.8e-06 s⁻¹	–	3.29e-05 ± 1.1e-05 s⁻¹
A6G A12U U65G	< 1e-05 s⁻¹	0.000137 ± 4.1e-05 s⁻¹	–	–	–	–	–
A12U U55G	0.00298 ± 0.00031 s⁻¹	0.119 ± 0.048 s⁻¹	0.0105 ± 0.0021 s⁻¹	–	0.00928 ± 0.0023 s⁻¹	104 ± 42 µM	0.00618 ± 0.0009 s⁻¹
A1U U2G A3G A5U A6C G7C C8A G9U C10A C11A	< 1e-05 s⁻¹	< 1e-05 s⁻¹	< 1e-05 s⁻¹	–	< 1e-05 s⁻¹	–	< 1e-05 s⁻¹
A6G G9A G44A C71A	< 1e-05 s⁻¹	< 1e-05 s⁻¹	–	–	< 1e-05 s⁻¹	–	–
G41C U69C	–	–	–	–	–	84.1 ± 23 µM	–
A42G A53G	0.00144 ± 0.00031 s⁻¹	0.00932 ± 0.0024 s⁻¹	0.00893 ± 0.0025 s⁻¹	–	0.0414 ± 0.018 s⁻¹	248 ± 95 µM	0.00422 ± 0.0013 s⁻¹
C68U U69G	–	–	–	2.33e-05 ± 5.5e-06 s⁻¹	3.45e-05 ± 1.6e-05 s⁻¹	–	–
C68U U69C	–	6.79e-05 ± 1.1e-05 s⁻¹	–	8.69e-05 ± 6.8e-06 s⁻¹	3.88e-05 ± 1.4e-05 s⁻¹	2850 ± 730 µM	–
U65G C68U	5.31e-05 ± 8.4e-06 s⁻¹	0.00155 ± 0.00018 s⁻¹	0.000304 ± 4.1e-05 s⁻¹	0.00167 ± 0.00057 s⁻¹	0.000758 ± 0.00013 s⁻¹	–	0.000159 ± 3.2e-05 s⁻¹
C67G C68U	–	6.92e-05 ± 6.7e-06 s⁻¹	5.35e-05 ± 6.6e-06 s⁻¹	7.04e-05 ± 1.8e-06 s⁻¹	6.33e-05 ± 6e-06 s⁻¹	234 ± 34 µM	2.51e-05 ± 1e-05 s⁻¹
A6C C8G G51A C71U	< 1e-05 s⁻¹	< 1e-05 s⁻¹	–	–	–	–	–
